Assay [1] deals with T1, 6E-WT peptide (Homo sapiens UBE2J1 (UBC6e; synthetic …, UniProt Q9Y385).
T1 construct: Leu at position 9; numbers count on: the peptide; the printed E5 and L9 fit this; also called 6E-L9 (WT); 6E peptide; source: synthetic peptide
T1 chain: QADQEAKELARQIS
In words: SPR; biotinylated Nb (1 uM) captured on a streptavidin (SA) chip to about 2000 RU; peptide as analyte, 50 ul/min, 60 s contact, 120 s dissociation; 1X PBS pH 7.4 plus 0.05% P20; Biacore T200; 1:1 kinetics binding model, local fittings. Conditions: both partners purified. In general terms: SPR reads the build-up and loss of mass on a sensor chip optically.

The target of assay [2] is T1, 6E-WT peptide. In words: flow cytometry on cells; competition: HEK293 cells stably expressing A2AR-Nb6E-ALFA with unlabeled variant 6E peptides (10–0.01 uM) and 10 nM FAM-6E-C14 for 30 m in 2% BSA in PBS; antifluorescein antibody-AF647; median fluorescence intensity. The following applies: one partner purified. Background: Flow cytometry measures light scatter and fluorescence of single cells or particles in a stream.

Another assay concerns the target T2, 127-tag peptide (Homo sapiens CXCR2 (synthetic peptide)).
T2 construct: numbers count on: the peptide; the printed residues Ser1', Phe2', Glu3', Phe5', Trp6', Lys7', Asp10' fit this; source: synthetic peptide
T2 chain: SFEDFWKGED
Put plainly: SPR; biotinylated Nb (1 uM) captured on a streptavidin (SA) chip to about 2000 RU; peptide as analyte, 50 ul/min, 60 s contact, 120 s dissociation; 1X PBS pH 7.4 plus 0.05% P20; Biacore T200; 1:1 kinetics binding model, local fittings. The following applies: both partners purified.

B1: Nb6E-biotin (VHH)
VHH: QVQLQESGGGLVQPGGSLRLSCAASGFVFENSAMAWYRQAPGKERELIAVIGTTFIKLAESVKGRFTISRDNAKSTVYLQMNNLKPEDTAVYYCSKSGAYWGQGTQVTVSS
notes: as the chain of m13; Sortagging probably removes the His6 tag; also called biotinylated Nb6E; source: bacterial expression (pET26b, pelB), purified; labelled by sortagging (Sortase 5M), Ni-NTA and PD10
B1: the binding result in the assay with 6E-WT peptide [1] is “binds”.

B2: A2AR-Nb6E-ALFA (VHH)
VHH: B1 VHH
notes: as the chain of m13 (Nb6E); also called cell surface protein fused with Nb6E; source: HEK293 cells, stably expressing, on cells
Take B2: the binding result with 6E-WT peptide [2] is on record as “binds”.

B3: Nb127–biotin (VHH)
VHH: EVQLVESGGGLVQAGESLRLSCAASGSTFDFKVMGWYRQPPGKQREGVAAIRLSGNMHYAESVKGRFAISKANAKNTVYLQMNSLRPEDTAVYYCKVNIRGQDYWGQGTQVTVSS
notes: as the chain of m1; Sortagging probably removes the His6 tag; also called biotinylated Nb127; source: bacterial expression (pET26b, pelB), purified; labelled by sortagging (Sortase 5M), Ni-NTA and PD10
Consider B3, for which the Kd with 127-tag peptide turned out to be 14 nM.

The Kd is a measure of binding affinity in units of concentration.
